The target of the assay is endogenous actin of neonatal rat cardiomyocytes (rat (endogenous in neonatal rat cardiomyocytes)) (UniProt P68035). Put plainly: co-sedimentation; G-actin/F-actin fractionation of lysates of neonatal rat cardiomyocytes transduced with mCherry or mCherry-Tpm1.1 (G-Actin/F-actin In Vivo Assay Biochem Kit); ultracentrifugation 100,000 x g, 37 °C, 1 h; supernatant and pellet immunoblotted. A general note: Immunoblotting shows a protein as a band on a membrane.

For “endogenous CAP2 of neonatal rat cardiomyocytes (from UniProt P52481 1-477) (natural protein)”, the percent of CAP2 in the F-actin fraction (cells expressing mCherry) was found to be 28.6% and the percent of CAP2 in the F-actin fraction (cells expressing mCherry-Tpm1.1) was 25%.

In the case of “endogenous Tmod1 of neonatal rat cardiomyocytes (from UniProt P70567 1-359) (natural protein)”, the percent of Tmod1 in the F-actin fraction (cells expressing mCherry) was found to be 42.7% and the percent of Tmod1 in the F-actin fraction (cells expressing mCherry-Tpm1.1) was determined as 65.6%.
